{"source": "IntAct's records for PubMed 11356191", "target": "ptn13_human PTPN13 (UniProt Q12923)", "sequence (Q12923 whole entry)": "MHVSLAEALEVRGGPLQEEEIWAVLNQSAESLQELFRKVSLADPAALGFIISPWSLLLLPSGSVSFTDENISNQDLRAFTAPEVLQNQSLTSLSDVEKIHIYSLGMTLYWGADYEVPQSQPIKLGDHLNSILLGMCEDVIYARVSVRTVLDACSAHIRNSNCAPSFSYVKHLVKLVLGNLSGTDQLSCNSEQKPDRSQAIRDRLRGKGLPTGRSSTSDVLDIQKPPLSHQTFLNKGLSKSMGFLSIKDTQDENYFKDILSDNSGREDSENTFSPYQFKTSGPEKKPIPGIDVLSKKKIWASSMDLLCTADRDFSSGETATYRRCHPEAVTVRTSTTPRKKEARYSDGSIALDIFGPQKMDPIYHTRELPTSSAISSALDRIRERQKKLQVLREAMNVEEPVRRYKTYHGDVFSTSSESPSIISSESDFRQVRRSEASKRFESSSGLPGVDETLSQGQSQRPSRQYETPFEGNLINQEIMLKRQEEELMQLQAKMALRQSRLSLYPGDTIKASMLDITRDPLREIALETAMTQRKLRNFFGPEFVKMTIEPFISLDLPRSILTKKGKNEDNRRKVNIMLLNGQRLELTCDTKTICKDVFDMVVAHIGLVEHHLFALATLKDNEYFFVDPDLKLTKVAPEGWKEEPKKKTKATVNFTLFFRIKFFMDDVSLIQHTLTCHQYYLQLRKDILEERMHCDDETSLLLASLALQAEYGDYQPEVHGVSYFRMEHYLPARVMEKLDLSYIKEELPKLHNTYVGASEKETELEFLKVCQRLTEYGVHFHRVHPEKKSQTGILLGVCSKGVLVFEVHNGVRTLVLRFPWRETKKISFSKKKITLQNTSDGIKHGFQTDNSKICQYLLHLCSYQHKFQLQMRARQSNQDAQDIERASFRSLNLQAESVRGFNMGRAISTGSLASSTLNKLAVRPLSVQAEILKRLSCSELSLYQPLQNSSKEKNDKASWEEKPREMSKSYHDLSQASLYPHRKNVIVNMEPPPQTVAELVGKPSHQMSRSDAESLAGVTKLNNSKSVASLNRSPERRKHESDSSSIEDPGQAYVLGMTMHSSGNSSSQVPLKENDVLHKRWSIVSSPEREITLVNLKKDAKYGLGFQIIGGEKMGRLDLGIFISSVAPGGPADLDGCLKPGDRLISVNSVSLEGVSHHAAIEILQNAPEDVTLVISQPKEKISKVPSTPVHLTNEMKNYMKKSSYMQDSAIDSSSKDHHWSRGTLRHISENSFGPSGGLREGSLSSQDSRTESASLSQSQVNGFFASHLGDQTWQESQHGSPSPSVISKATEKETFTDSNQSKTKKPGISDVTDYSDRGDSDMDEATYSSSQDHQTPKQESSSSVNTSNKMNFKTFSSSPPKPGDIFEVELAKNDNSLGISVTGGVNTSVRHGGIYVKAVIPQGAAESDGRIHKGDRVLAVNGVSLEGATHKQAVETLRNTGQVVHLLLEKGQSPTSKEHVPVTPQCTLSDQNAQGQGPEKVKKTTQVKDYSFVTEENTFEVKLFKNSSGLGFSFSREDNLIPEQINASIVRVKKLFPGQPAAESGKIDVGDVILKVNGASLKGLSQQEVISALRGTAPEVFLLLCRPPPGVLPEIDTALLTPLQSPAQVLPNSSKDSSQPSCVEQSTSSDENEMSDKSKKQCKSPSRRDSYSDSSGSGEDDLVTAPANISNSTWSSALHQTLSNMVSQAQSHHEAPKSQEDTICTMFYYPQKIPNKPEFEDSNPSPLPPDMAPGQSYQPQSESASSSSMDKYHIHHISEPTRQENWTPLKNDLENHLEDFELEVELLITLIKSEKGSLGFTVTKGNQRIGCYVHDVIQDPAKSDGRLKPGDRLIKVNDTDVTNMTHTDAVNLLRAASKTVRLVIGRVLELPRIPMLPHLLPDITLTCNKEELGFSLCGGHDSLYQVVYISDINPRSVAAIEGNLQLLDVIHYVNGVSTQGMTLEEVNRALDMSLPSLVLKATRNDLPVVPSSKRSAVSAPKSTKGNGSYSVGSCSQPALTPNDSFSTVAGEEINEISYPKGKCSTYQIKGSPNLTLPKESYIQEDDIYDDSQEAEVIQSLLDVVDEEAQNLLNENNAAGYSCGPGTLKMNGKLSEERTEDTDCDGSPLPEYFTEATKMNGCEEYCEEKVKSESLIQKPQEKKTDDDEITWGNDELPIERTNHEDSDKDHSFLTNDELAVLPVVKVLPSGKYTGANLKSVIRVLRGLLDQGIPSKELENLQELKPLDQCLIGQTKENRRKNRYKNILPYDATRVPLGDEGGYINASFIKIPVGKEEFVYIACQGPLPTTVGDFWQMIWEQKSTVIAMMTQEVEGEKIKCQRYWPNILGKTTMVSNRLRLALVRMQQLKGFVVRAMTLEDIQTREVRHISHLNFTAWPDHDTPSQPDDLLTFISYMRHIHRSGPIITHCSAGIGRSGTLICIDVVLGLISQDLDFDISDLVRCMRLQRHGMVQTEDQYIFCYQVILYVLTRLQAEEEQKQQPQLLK", "data": [{"substance": "Serine/threonine-protein kinase N2 (Homo sapiens), Q16513 C984S", "values": [{"measurement": "effect of a mutation on the interaction", "value": "disrupting interaction"}]}]}
